The results in this text go back to publication PMC3267046, “Structure of Ddn, the Deazaflavin-Dependent Nitroreductase from Mycobacterium tuberculosis Involved in Bioreductive Activation of PA-824” (Structure(London, England:1993), 2012).

The series deals with the molecule itself. The series is described as follows: SEC.

B1: MBP-Ddn fusion protein, full-length wild-type deazaflavin-dependent nitroreductase (Ddn, Rv3547) fro (enzyme)
chain: MPKSPPRFLNSPLSDFFIKWMSRINTWMYRRNDGEGLGGTFQKIPVALLTTTGRKTGQPRVNPLYFLRDGGRVIVAASKGGAEKNPMWYLNLKANPKVQVQIKKEVLDLTARDATDEERAEYWPQLVTMYPSYQDYQSWTDRTIPIVVCEP
notes: also called WT MBP-Ddn
In the case of B1, the binding result is given as “binds”.

B2: Untagged wild-type Ddn (full length), produced by proteolytic removal of MBP (enzyme)
chain: MPKSPPRFLNSPLSDFFIKWMSRINTWMYRRNDGEGLGGTFQKIPVALLTTTGRKTGQPRVNPLYFLRDGGRVIVAASKGGAEKNPMWYLNLKANPKVQVQIKKEVLDLTARDATDEERAEYWPQLVTMYPSYQDYQSWTDRTIPIVVCEP
notes: also called Untagged Ddn; untagged WT Ddn
Turning to B2, the binding result is “binds”.
